Experiment [1] concerns the target MPPT2 (proaerolysin with a uPA cleavage site in the activation sequence, an N-terminal AFAI antibody fragment and a His tag) (Aeromonas hydrophila). Briefly: cell-based or functional assay.
For experiment [2], the target named is MPPT3 (proaerolysin with a uPA cleavage site in the activation sequence, an AFAI antibody fragment attached by a uPA-cleavable linker, and a His tag) (Aeromonas hydrophila). In words: cell-based or functional assay.

Turning to “urokinase-type plasminogen activator (uPA) (enzyme)”, the Hemolytic activity after 60 minutes (horse red blood cells, after uPA digestion) (hemolytic titer (wells showing lysis)) in experiment [1] came to 4.5; in experiment [2], 8.

Values taken from US20090016988A1.
